The nanobody polyreactivity screen of Harvey et al. (2022)

Assay: yeast display, Sf9 membrane polyspecificity reagent, FACS + sequencing; frameworks hold sequencing errors
Summary of the method: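 Nanobodies came from a synthetic yeast display library in Saccharomyces cerevisiae BJ5465, induced with galactose for 36–48 hours and stained for 1 hour at 4 °C with 10% biotinylated, detergent-solubilized Sf9 membrane reagent. Cells were enriched on streptavidin microbeads and then FACS-sorted, with low and high (top ~1%) gates set on anti-HA fluorescence for expression and streptavidin fluorescence for reagent binding. Each polyreactivity label reflects the gate a clone came from. Genes were amplified by colony PCR, sequenced by MiSeq 2 × 250 and filtered by CDR length.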

Row | Sequence | polyreactivity (PSR sort gate)
1 | QVQLVESGGGLVQAGGSLRLSCAASGITFDYYAMGWYRQAPGKERELVAAITSRGGSTYYADSVKGRFTISRDNAKNTVYLQMNSLKPEDTAVYYCAAVRSGYYNYWGQGTQVTVSS | high polyreactivity
2 | QVQLVESGGGLVQAGGSLRLSCAASGITFDYYAMGWYRQAPRKERELVPGISWGGGSTYYADSVKGRFTISRDNAKNTVYLQMNSLKPEDTAVYYCAADIVSSPSSYVPPGDYWGQGTQVTVSS | low polyreactivity
3 | QVQLVESGGGLVQAGGSLRLSCAASGITFDYYGMGWYIQAPGKERELVASITSGGSTNYADSVKGRFTISRDNPKNTVYLQMNSLKPEDTAVYYCNAEFWEVSPDPRDYDYWGQGTQVTVSS | low polyreactivity
4 | QVQLVESGGGLVQAGGSLRLSCAASGITFENYAMGWYRQAPGKETELVASITRSGGNTYYADSVKGRFTISRDTAKNSVYLQMNSLKPEDTAVYDCAKDSGLNDDFIYWGQGTQVTVSS | low polyreactivity
5 | QVQLVESGGGLVQAGGSLRLSCAASGITFEYNAMGWYRQAPGKERELVATISGGARTYYADSVKGRFTISRDNAKNTVYLQMNSLKPEETAVYYCAAKYPWYGWFDHWGQGTQVTVSS | low polyreactivity
6 | QVQLVESGGGLVQAGGSLRLSCAASGITFEYYAMGWYRQAPGKERELVAAIDTGGSTNYADSVKGRFTISRDNAKNTVYLQMNSLKPEDTAVYYCAADWSWWDGEDYHFEYDYWGQGTQVTVSS | low polyreactivity
7 | QVQLVESGGGLVQAGGSLRLSCAASGITFEYYAMGWYRQAPGKERELVAAIDTVGSTNYADSVKGRFTISRDNAKNTVYLQMNSLKPEDTAVYYCAADWSWWDGEDYHFEYDYWGQGTQVTVSS | low polyreactivity
8 | QVQLVESGGGLVQAGGSLRLSCAASGITFEYYDMGWYRQAPGKERELVAAISWSTDITYADSVKGRFTISRDNAKNTVYLQLNSLKPEDTAVYYCAALGGLSDFWHLYDYWGQGTQVTVSS | low polyreactivity
9 | QVQLVESGGGLVQAGGSLRLSCAASGITFFGYAMGWYRQAPGKERELVAGISRSTGRTYYADSVKGRFTISRDNAKNTVYLHMNSLKPEDTAVYYCNAELYPWPGVVRYNYWGQGTQVTVSS | high polyreactivity
10 | QVQLVESGGGLVQAGGSLRLSCAASGITFFNYAMGWYRQAPGKERELVAAISGGSTYYADSVKGRFTISRDNAKNTVYLQMNSLKPEDTAVYYCAARVASKYLVYRKRPSRFDYWGQGTQVTVSS | low polyreactivity
11 | QVQLVESGGGLVQAGGSLRLSCAASGITFFRNAMGWYRQAPGKERELVAGISTTGGRTYYADSVKGRFTISRDKAKNTVYLQMNSLKPEDTAVYYCNTLVPRAGREYDYWGQGTQVTVSS | high polyreactivity
12 | QVQLVESGGGLVQAGGSLRLSCAASGITFFRNAMGWYRQAPGKERELVAVITYSGGRTSYADSVKGRFTISRDNAKNTVYLQMNSLKPEDTAVYYCATEKWQSSPGYTYYFVEYDYWGQGTQVTVSS | low polyreactivity
13 | QVQLVESGGGLVQAGGSLRLSCAASGITFFSYAMGWYREAPGKERELVAAISRRTGSTYYADSVKGRFTISRDNGMNTVFLQMMSLKPEDTAVYYCAARLPGTRYPYDYWGQGTQVTVSS | high polyreactivity
14 | QVQLVESGGGLVQAGGSLRLSCAASGITFFTNVMGWYRPAPGKERELVAAISRSGTSTYYADSVKGRFTISRDNAKNTVYLQMNSLKPEDTAVYYCNADQIRGDGDYWGQGTQVTVSS | high polyreactivity
15 | QVQLVESGGGLVQAGGSLRLSCAASGITFFWNAMGWYRTAPGKERELVAAISSGAGTTYADSVKGRFTISRDNAKNTVYLQMNSLKPEDTAVYYCAARRYRYAYGPYNYWGQGTQVTVSS | low polyreactivity
16 | QVQLVESGGGLVQAGGSLRLSCAASGITFFYNAMGWYRQAPGKERELVADITNSGSTYYADSVKGRFTISRDNAKNTVYLQMNSLKPEDTAVYYCAAGQAYDYFVYYPDDYWGQGTQVTVSS | low polyreactivity
17 | QVQLVESGGGLVQAGGSLRLSCAASGITFFYYAMGWYRQAPGKEMELVAAIRYYGTSTYADSVKGRFTISRDNAKNTVYLQMNSLKPEDTAVYYCAAVFWFVGSLYDYWGQGTQVTVSS | low polyreactivity
